{"source": "the DeepSol protein solubility set", "data": [{"assay": "soluble on expression in E. coli; label from the status in PepcDB or PDB records", "values": [{"sequence": "MSLPDEQGRRTVTLETAEEALLKRAVVYDHDGDEHYHVASALIKSIRGSDPDAALYWLARMLYAGEDPRFIARRLVISAAEDIGLADPQALVIAQAAADAVSFIGMPEGRIPLAEAVVYLACAPKSNSAYLAIDRALAVVEREKTPPVPNHLKDTGYGSDQRLGYGKGYQYPHDFPGAWVEQRYLPEGVDGPFWEPKGYGREAELARLLRERRGREGHHHHHH", "soluble on expression in E. coli": "soluble"}, {"sequence": "NDVKRALEVEEINKLLNEVPLKRLPEDLVRCRVWANLMFQLRGMPFVDLAFLHKSDLKGNTLSYRRHKTGGQMIVDIPPTAMELIRQYQNTDCNSPYLFPILSGTKTGEELYIEYQQALRIMNYNLGRLARRCGVITKVSSYTTRHTWATLAKYCNFSEQLICEAFGHSSVKVTETYLKNFKYEEIKKANDAI", "soluble on expression in E. coli": "not soluble"}, {"sequence": "SLTRPNTDYSCGGFLSQPSGDFSSPFYPGNYPNNAKCVWDIEVQNNYRVTVIFRDVQMEGGCNYDYIEVFDGPYRSSPLIARVCDGARGSFTSSSNFMSIRFISDHSITRRGFRAEYYSSPSN", "soluble on expression in E. coli": "soluble"}, {"sequence": "MIMGFWNGVAKAAKAVGEGMIEAGNEHKALKMEYAEKSSEELHEIVKSDGFFKNSTREKSAAYAILKERGEV", "soluble on expression in E. coli": "not soluble"}, {"sequence": "MSLRVQLILHLEIPKEVCRSLEVDNYINNSIEINLKCEKKPTLYIKTHSIGSLKSILDDFFRCQNAAMEVYNLIKTYTIRNVTKDDLDDFLELYFKAYRGFDKYYYKKKKWARWYFKWLMKRDEDGFFVCEVNGKPVGFVACDCNWISNIEKREVAEIHEIFVDPDFRGRGIGTALINKAIEYAKKRGRRIVELWVGVENKGAIEFYKRLGFEEKEVVKGWLRMVKRIEGHHHHHH", "soluble on expression in E. coli": "not soluble"}, {"sequence": "GMMNTTTLDRYFDLFDASRTDEKAFDDLISLFSDEITFVLNGQEQHGIDAWKQFVRMVFTANQDIKHMYAGWVPSETGDTMETRWAVCGKSADGSVFTQDGTDIARLNADGKIVYLANVPDDTAMFNQYND", "soluble on expression in E. coli": "soluble"}, {"sequence": "MSYNEKSEAIIKEEWLQRLEQFPFKQADMNRLIMNYLVTEGFKEAAEKFQHEADLEPSVELSSLDGRILIREAVQAGRIEEATQLVNQLHPELLGSDRYLFFHLQQLQLIELIRAGKVEEALSFAQSKLSESGEEAMFELERTLALLAFEKPQESPFADLLEQSYRQKIASELNSAILRCEQSEDSTPKMMFLLKLILWAQSKLDSRSISYPKMKNLETAHLEPKLEHHHHHH", "soluble on expression in E. coli": "not soluble"}, {"sequence": "GHHHHHHAIAENLYFQSETSETDSTGNTQTCETRQTRSNSWTAWGIHAISTITDGAKQLYTKALGLDELEEKKLEDEEGVTHVEVDEKTKRDLWNQLSTLVGADVINMRLSLPVWLFEPTTALQRMCETLQFHQLLDMAATCEEPVERDALVAAFTVSAFAHTERVYKPFNPVLGETFEWTSRDGTTRVLCEQVSHHPPVSVSYTEGPGWVAQEVFSCNAYFLGNSVEIRNTGSRYVYLTSFDERYEWTLPVSAAQNLFVGGSFIDHYGELILRSSPRGSVTSLTFTKCGWFGRGRYAVNGDIVDADGYRVMELSGEWNRGLVGFRLDKSSGERVDAKSLWYAGEHKPAVKRDKYNFTNFTYELLEVPDNAESIIPPTDSRFRPDRRALEGNNLSLANLEKVRVENIQRERENQRQKTGTTYVPAWFYQDDNNEWHFGGKYWKETRNMSEDQKEQMKLW", "soluble on expression in E. coli": "not soluble"}, {"sequence": "QRKISNIGAQSSMKLEDIKTPSASLTTTLAGRLAGVVAVQRTGEPGKDAADIWIRGIATPNTATPLILVDGVERAFNDIDPEDIESLTTLKDASATAVYGVRGANGVIIIKTKPGK", "soluble on expression in E. coli": "not soluble"}, {"sequence": "MGHHHHHHSHMASVSSATFSGHGARSLLQFLRLVGQLKRVPRTGWVYRNVQRPESVSDHMYRMAVMAMVIKDDRLNKDRKL", "soluble on expression in E. coli": "not soluble"}, {"sequence": "TAMRALIESLPTITEGEGRFVPYNDDEGGEEENVCTTEHVEMAKAKNWKVLTSWGEPFPGITALISIEGESEYSVYAQDGILYLSGMEQGLPVQ", "soluble on expression in E. coli": "not soluble"}, {"sequence": "MGHHHHHHSHQQENGSMFSLITWNIDGLDLNNLSERARGVCSYLALYSPDVIFLQEVIPPYYSYLKKRSSNYEIITGHEEGYFTAIMLKKSRVKLKSQEIIPFPSTKMMRNLLCVHVNVSGNELCLMTSHLESTRGHAAERMNQLKMVLKKMQEAPESATVIFAGDTNLRDREVTRCGGLPNNIVDVWEFLGKPKHCQYTWDTQMNSNLGITAACKLRFDRIFFRAAAEEGHIIPRSLDLLGLEKLDCGRFPSDHWGLLCNLDIIL", "soluble on expression in E. coli": "not soluble"}]}]}
